# Experimental data: patent publication US20090203886A1 (OSAKA UNIVERSITY, published 2009)
# Changes are numbered by the printed parent chain. “And” between values parts separate entries of the source, which are not always exact repeats. Identical values can stand only once.
# T1: human CD20 antigen (human, UniProt P11836 1-297)
# T1 construct: whole, on cells; also called CD20 on Raji cells; CD20/CHO cells
# T1 sequence (looked up): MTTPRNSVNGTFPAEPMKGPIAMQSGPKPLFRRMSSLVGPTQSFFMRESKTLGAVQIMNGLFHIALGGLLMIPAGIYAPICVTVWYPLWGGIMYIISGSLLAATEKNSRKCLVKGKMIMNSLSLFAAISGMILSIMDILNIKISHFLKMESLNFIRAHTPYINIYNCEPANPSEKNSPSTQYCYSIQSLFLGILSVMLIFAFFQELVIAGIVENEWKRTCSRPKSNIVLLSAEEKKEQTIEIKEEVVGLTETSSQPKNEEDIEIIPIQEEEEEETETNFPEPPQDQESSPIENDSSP
# B1: humanized 1K1791 antibody fv (FraL x VenH) (antibody, V domains shown)
# VH: QIQLVQSGPELKKPGASVKISCKASGYTFTNFGVNWVKQAPGKGLKWMGWINTYTGEPSYADDFKGRFAFSLDASVSTAYLQISSLKAEDTSTYFCTRRTNYYGTSYYYAMDYWGQGTTVTVSS
# VL: STVMTQSPSFLSASVGDRVTITCKASQSVSNDVAWYQQKPGQSPKVLIYFASNRYTGVPDRFSGSGYGTDFTLTISSLQAEDVAVYFCQQDYSSPLTFGAGTKLEIK
# notes: Kappa, gamma 1 construct; also called hz1791 fv; Fv010
# B2: humanized 1K1791 antibody vv (VenL x VenH) (antibody, V domains shown)
# VH: B1 VH
# VL: B1 VL with S9D, F10S, S12A, A13V, V15L, D17E, T22N, L73F, L78V, I106L
# notes: Kappa, gamma 1 construct; also called hz1791 vv; Vv018
# B3: humanized 1K1791 antibody as (AbbL x SdrH) (antibody, V domains shown)
# VH: B1 VH with P9S, I20V, K38R, D62Q, D63G, K65T, S92A
# VL: B1 VL with S9D, F10S, S12A, A13V, V15L, D17E, V19A, T22N, A25S, T56S
# notes: Kappa, gamma 1 construct; also called hz1791 as; As001
# B4: humanized 1K1791 antibody ff (FraL x FraH) (antibody, V domains shown)
# VH: B1 VH with P9S, I20V, V76A, T91M, S92A
# VL: B1 VL
# notes: Kappa, gamma 1 construct; also called hz1791 ff; Ff019
# B5: humanized 1K1791 antibody fa (FraL x AbbH) (antibody, V domains shown)
# VH: B1 VH with P9S, I20V, K38R, K46E, D62Q, D63G, K65T, A69V, S92A
# VL: B1 VL
# notes: Kappa, gamma 1 construct; also called hz1791 fa; Fa007
# B6: humanized 1K1791 antibody aa (AbbL x AbbH) (antibody, V domains shown)
# VH: B1 VH with P9S, I20V, K38R, K46E, D62Q, D63G, K65T, A69V, S92A
# VL: B1 VL with S9D, F10S, S12A, A13V, V15L, D17E, V19A, T22N, A25S, T56S
# notes: Whole humanized antibody from CHO cells; construct name ends kg1 (kappa, gamma 1); The two clones are producer clones of one construct; also called hz1791 aa; Aa008
# B7: humanized 1K1791 antibody ss (SdrL x SdrH) (antibody, V domains shown)
# VH: B1 VH with P9S, I20V, K38R, D62Q, D63G, K65T, S92A
# VL: STVMTQSPDSLAVSLGERATINCKSSQSNSNDVAWYQQKPGQSPKVLIYFASNRYSGVPDRFSGSGYGTDFTLTISSLQAEDVAVYFCQQDYSSPLTFGAGTKLEIK
# notes: Kappa, gamma 1 construct; also called hz1791 ss; Ss020
# B8: humanized 1K1791 antibody sv (SdrL x VenH) (antibody, V domains shown)
# VH: B1 VH
# VL: B7 VL
# notes: Kappa, gamma 1 construct; also called hz1791 sv; Sv015
# B9: humanized 1K1791 antibody vs (VenL x SdrH) (antibody, V domains shown)
# VH: B1 VH with P9S, I20V, K38R, D62Q, D63G, K65T, S92A
# VL: B7 VL with A19V, S25A, N29V, S56T, L73F, L78V, I106L
# notes: Kappa, gamma 1 construct; also called hz1791 vs; Vs006
# B10: humanized 1K1791 antibody fs (FraL x SdrH) (antibody, V domains shown)
# VH: B1 VH with P9S, I20V, K38R, D62Q, D63G, K65T, S92A
# VL: B1 VL
# notes: Kappa, gamma 1 construct; also called hz1791 fs; Fs007
# B11: humanized 1K1791 antibody av (AbbL x VenH) (antibody, V domains shown)
# VH: B1 VH
# VL: B7 VL with N29V
# notes: Kappa, gamma 1 construct; also called hz1791 av; Av004
# B12: humanized 1K1791 antibody sf (SdrL x FraH) (antibody, V domains shown)
# VH: B1 VH with P9S, I20V, V76A, T91M, S92A
# VL: B7 VL
# notes: Kappa, gamma 1 construct; also called hz1791 sf; Sf043
# B13: humanized 1K1791 antibody sa (SdrL x AbbH) (antibody, V domains shown)
# VH: B1 VH with P9S, I20V, K38R, K46E, D62Q, D63G, K65T, A69V, S92A
# VL: B7 VL
# notes: Kappa, gamma 1 construct; also called hz1791 sa; Sa023
# B14: humanized 1K1791 antibody va (VenL x AbbH) (antibody, V domains shown)
# VH: B1 VH with P9S, I20V, K38R, K46E, D62Q, D63G, K65T, A69V, S92A
# VL: B7 VL with A19V, S25A, N29V, S56T, L73F, L78V, I106L
# notes: Kappa, gamma 1 construct; also called hz1791 va; Va016
# B15: humanized 1K1791 antibody af (AbbL x FraH) (antibody, V domains shown)
# VH: B1 VH with P9S, I20V, V76A, T91M, S92A
# VL: B7 VL with N29V
# notes: Kappa, gamma 1 construct; also called hz1791 af; Af021
# B16: humanized 1K1791 antibody vf (VenL x FraH) (antibody, V domains shown)
# VH: B1 VH with P9S, I20V, V76A, T91M, S92A
# VL: B7 VL with A19V, S25A, N29V, S56T, L73F, L78V, I106L
# notes: Kappa, gamma 1 construct; also called hz1791 vf; Vf029
# B17: chimerized 1K1791 antibody (c1791) (antibody, V domains shown)
# VH: QIQLVQSGPELKKPGETVKISCKASGYTFTNFGVNWVKQAPGKGLKWMGWINTYTGEPSYADDFKGRFAFSLEASANTAYLQINNLKNDDMSTYFCTRRTNYYGTSYYYAMDYWGQGTSVTVSS
# VL: STVMTQTPKFLLVSAGDRVTITCKASQSVSNDVAWYQQKPGQSPKVLIYFASNRYTGVPDRFTGSGYGTDFTFTINTVQAEDLAVYFCQQDYSSPLTFGAGTKLELK
# Target: T1, human CD20 antigen
# Experiment: Scatchard analysis on Raji cells, FITC anti human Fc secondary (Example 3)
# Description: (§1) The reaction solution was 1% BSA-PBS solution with a cell number of 5×10⁶ cells and was injected into a 1.5 ml tube to a final volume of 100 μl. Three samples for each test antibody were prepared and four tubes to which antibody was not added were prepared as samples for background calculations.
# (§2) After the detecting step, an image was digitized using image analysis software Image Quant (Amersham Bioscience) and analyzed using Excel (Microsoft). Average values for the same test antibodies were calculated and the values for background calculation samples (when only reacting a cell with a FITC-labeled secondary antibody) were subtracted from the test antibody values. The background values derived for the FITC-labeled secondary antibody binding non-specifically to cells, the PBS solution and the plate are omitted. At the same time, a standard curve was prepared by measuring the amount of fluorescence of only FITC-labeled secondary antibodies at amounts of 0, 12.5, 25, 50, 75, 100, 125, and 150 ng per 100 μl. In this manner, the number of moles of secondary antibody binding to cells was calculated. Assuming that each primary antibody and the FITC-labeled secondary antibody react at a ratio of […], the amount of cell-bound primary antibody was calculated. Primary antibody in suspension was calculated by subtracting the bound amount from the added amount. Scatchard analysis was performed using these values in order to calculate a dissociation constant Kd.
row,Kd,Binder
1,7.17 nM and 7.25 nM,B1
2,7.14 nM and 7.01 nM,B2
3,11.9 nM and 11.5 nM,B3
4,8.5 nM and 7.81 nM,B4
5,11.3 nM and 8.83 nM,B5
6,11.7 nM and 9.96 nM,B6
7,24.4 nM and 21.8 nM,B7
8,14.3 nM and 10.8 nM,B8
9,8.8 nM and 11.9 nM,B9
10,6.33 nM and 11.1 nM,B10
11,10.7 nM and 9.17 nM,B11
12,11.6 nM and 13.8 nM,B12
13,14.7 nM,B13
14,13.1 nM and 7.5 nM,B14
15,6.84 nM and 8.67 nM,B15
16,7.78 nM and 7.79 nM,B16

# Target: T1, human CD20 antigen
# Experiment: cell-based or functional assay
"Apoptosis (5 ug/ml), DHL4","Apoptosis (5 ug/ml), RAJI","Apoptosis (5 ug/ml), RCK8","Apoptosis (5 ug/ml), Wil2-NS",Binder
"65 relative, m2B8 = 100","88 relative, m2B8 = 100","50 relative, m2B8 = 100","49 relative, m2B8 = 100",B1
"96 relative, m2B8 = 100","84 relative, m2B8 = 100","47 relative, m2B8 = 100","49 relative, m2B8 = 100",B4
"133 relative, m2B8 = 100","202 relative, m2B8 = 100","92 relative, m2B8 = 100","108 relative, m2B8 = 100",B7
"143 relative, m2B8 = 100","205 relative, m2B8 = 100","93 relative, m2B8 = 100","100 relative, m2B8 = 100",B12

# Target: T1, human CD20 antigen
# Experiment: cell-based or functional assay
# Remark: another data set of the same source
"CDC (10 ug/ml), RAJI","CDC (10 ug/ml), RC-K8","CDC (10 ug/ml), SUDHL4","CDC (10 ug/ml), WIL2NS",Binder
"99 relative, c2B8 = 100","100 relative, c2B8 = 100","119 relative, c2B8 = 100","529 relative, c2B8 = 100",B17
"99 relative, c2B8 = 100","498 relative, c2B8 = 100","120 relative, c2B8 = 100","172 relative, c2B8 = 100",B1
"98 relative, c2B8 = 100","530 relative, c2B8 = 100","121 relative, c2B8 = 100","203 relative, c2B8 = 100",B4
"73 relative, c2B8 = 100","108 relative, c2B8 = 100","61 relative, c2B8 = 100","120 relative, c2B8 = 100",B7
"78 relative, c2B8 = 100","713 relative, c2B8 = 100","111 relative, c2B8 = 100","295 relative, c2B8 = 100",B12

# Target: T1, human CD20 antigen
# Experiment: Scatchard analysis on Raji cells (Example 3), average over the clones of the construct
# Description: as §1, §2
row,Kd [nM],Binder
1,7.21,B1
2,7.07,B2
3,11.7,B3
4,8.15,B4
5,10.1,B5
6,10.8,B6
7,23.1,B7
8,12.6,B8
9,10.3,B9
10,8.71,B10
11,9.94,B11
12,12.7,B12
13,14.7,B13
14,10.3,B14
15,7.76,B15
16,7.78,B16
